Measurements from IntAct's records for PubMed 32296183.

B1: Golgi SNAP receptor complex member 2 (Homo sapiens), O14653 (parent)
chain: MDPLFQQTHKQVHEIQSCMGRLETADKQSVHIVENEIQASIDQIFSRLERLEILSSKEPPNKRQNARLRVDQLKYDVQHLQTALRNFQHRRHAREQQERQREELLSRTFTTNDSDTTIPMDESLQFNSSLQKVHNGMDDLILDGHNILDGLRTQRLTLKGTQKKILDIANMLGLSNTVMRLIEKRAFQDKYFMIGGMLLTCVVMFLVVQYLT
partner: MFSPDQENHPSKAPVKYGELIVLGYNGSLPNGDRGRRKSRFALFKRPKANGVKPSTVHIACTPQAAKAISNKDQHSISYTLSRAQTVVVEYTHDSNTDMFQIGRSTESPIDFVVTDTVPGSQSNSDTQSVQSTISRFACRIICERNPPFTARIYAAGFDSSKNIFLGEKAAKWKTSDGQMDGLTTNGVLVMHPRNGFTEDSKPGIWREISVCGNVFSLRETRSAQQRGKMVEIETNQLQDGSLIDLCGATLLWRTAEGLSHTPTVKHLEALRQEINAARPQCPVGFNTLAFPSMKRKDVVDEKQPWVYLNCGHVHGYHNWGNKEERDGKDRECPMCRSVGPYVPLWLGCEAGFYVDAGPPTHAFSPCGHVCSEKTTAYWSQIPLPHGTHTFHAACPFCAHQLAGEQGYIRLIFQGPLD
B2: Catenin alpha-3 (Homo sapiens), Q9UI47-2 (parent)
chain: MSAETPITLNIDPQDLQVQTFTVEKLLEPLIIQVTTLVNCPQNPSSRKKGRSKRASVLLASVEEATWNLLDKGEKIAQEATVLKDELTASLEEVRKESEALKVSAERFTDDPCFLPKREAVVQAARALLAAVTRLLILADMIDVMCLLQHVSAFQRTFESLKNVANKSDLQKTYQKLGKELENLDYLAFKRQQDLKSPNQRDEIAGARASLKENSPLLHSICSACLEHSDVASLKASKDTVCEEIQNALNVISNASQGIQNMTTPPEPQAATLGSALDELENLIVLNPLTVTEEEIRPSLEKRLEAIISGAALLADSSCTRDLHRERIIAECNAIRQALQDLLSEYMNNAGKKERSNTLNIALDNMCKKTRDLRRQLRKAIIDHVSDSFLDTTVPLLVLIEAAKNGREKEIKEYAAIFHEHTSRLVEVANLACSMSTNEDGIKIVKIAANHLETLCPQIINAALALAARPKSQAVKNTMEMYKRTWENHIHVLTEAVDDITSIDDFLAVSGMFLFF
partner: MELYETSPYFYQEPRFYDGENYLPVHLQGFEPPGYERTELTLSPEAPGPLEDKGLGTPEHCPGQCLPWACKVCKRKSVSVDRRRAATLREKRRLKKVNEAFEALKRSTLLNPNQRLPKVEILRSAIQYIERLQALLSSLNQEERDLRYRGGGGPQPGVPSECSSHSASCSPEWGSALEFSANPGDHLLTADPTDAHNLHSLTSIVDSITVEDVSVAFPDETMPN
B3: Catenin alpha-3 (Homo sapiens), Q9UI47-2 (parent)
chain: B2 chain
partner: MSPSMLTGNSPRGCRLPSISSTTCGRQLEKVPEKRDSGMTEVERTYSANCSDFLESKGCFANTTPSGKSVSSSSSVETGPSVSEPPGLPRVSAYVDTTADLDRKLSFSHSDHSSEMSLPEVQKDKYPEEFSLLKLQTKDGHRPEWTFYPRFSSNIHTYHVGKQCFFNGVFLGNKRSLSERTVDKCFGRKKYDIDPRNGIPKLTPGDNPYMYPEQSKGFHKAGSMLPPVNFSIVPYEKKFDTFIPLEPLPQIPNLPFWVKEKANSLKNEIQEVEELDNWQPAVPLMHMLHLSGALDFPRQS
B4: Catenin alpha-3 (Homo sapiens), Q9UI47-2 (parent)
chain: B2 chain
partner: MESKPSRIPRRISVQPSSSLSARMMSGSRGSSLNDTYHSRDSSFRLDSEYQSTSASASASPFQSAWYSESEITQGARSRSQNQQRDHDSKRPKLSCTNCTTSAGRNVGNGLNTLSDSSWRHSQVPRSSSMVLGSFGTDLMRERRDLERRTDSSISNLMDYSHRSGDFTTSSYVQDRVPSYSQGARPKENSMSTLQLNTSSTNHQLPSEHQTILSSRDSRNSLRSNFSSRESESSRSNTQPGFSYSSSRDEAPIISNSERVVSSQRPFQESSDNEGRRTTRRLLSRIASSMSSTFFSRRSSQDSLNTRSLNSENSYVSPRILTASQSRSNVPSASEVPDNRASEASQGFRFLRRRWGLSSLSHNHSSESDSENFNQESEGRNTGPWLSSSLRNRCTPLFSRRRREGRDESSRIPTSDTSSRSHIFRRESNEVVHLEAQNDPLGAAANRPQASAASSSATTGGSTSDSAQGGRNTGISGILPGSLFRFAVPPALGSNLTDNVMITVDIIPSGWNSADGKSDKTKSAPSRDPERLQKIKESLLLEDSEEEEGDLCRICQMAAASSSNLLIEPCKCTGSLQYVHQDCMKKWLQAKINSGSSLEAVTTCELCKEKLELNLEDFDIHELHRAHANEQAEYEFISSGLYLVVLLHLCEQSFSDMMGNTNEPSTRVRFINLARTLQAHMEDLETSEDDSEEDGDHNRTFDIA
B5: Golgi SNAP receptor complex member 2 (Homo sapiens), O14653 (parent)
chain: B1 chain
partner: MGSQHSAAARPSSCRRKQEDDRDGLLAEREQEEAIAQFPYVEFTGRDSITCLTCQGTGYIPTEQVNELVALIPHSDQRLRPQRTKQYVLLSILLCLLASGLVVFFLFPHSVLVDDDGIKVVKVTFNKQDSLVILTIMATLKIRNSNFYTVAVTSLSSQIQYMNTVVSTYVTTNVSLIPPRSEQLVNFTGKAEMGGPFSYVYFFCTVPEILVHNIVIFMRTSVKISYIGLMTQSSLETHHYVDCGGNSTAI
B6: Catenin alpha-3 (Homo sapiens), Q9UI47-2 (parent)
chain: B2 chain
partner: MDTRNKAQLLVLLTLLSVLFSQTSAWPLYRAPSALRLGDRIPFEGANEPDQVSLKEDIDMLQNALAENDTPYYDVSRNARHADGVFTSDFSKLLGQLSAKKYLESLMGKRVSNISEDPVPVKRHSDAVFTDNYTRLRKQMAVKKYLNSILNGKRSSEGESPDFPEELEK
B7: Transmembrane protein 43 (Homo sapiens), Q9BTV4 (parent)
chain: MAANYSSTSTRREHVKVKTSSQPGFLERLSETSGGMFVGLMAFLLSFYLIFTNEGRALKTATSLAEGLSLVVSPDSIHSVAPENEGRLVHIIGALRTSKLLSDPNYGVHLPAVKLRRHVEMYQWVETEESREYTEDGQVKKETRYSYNTEWRSEIINSKNFDREIGHKNPSAMAVESFMATAPFVQIGRFFLSSGLIDKVDNFKSLSLSKLEDPHVDIIRRGDFFYHSENPKYPEVGDLRVSFSYAGLSGDDPDLGPAHVVTVIARQRGDQLVPFSTKSGDTLLLLHHGDFSAEEVFHRELRSNSMKTWGLRAAGWMAMFMGLNLMTRILYTLVDWFPVFRDLVNIGLKAFAFCVATSLTLLTVAAGWLFYRPLWALLIAGLALVPILVARTRVPAKKLE

Variants of: B1
Conditions: with peli1_human PELI1, Q96FA3

Row | Variant | effect of a mutation on the interaction
1 | G144W | disrupting interaction strength

Variants of: B2
Conditions: with myog_human MYOG

Row | Variant | effect of a mutation on the interaction
2 | V94D | disrupting interaction strength

Variants of: B3
Conditions: with spas1_human SPATS1, Q496A3

Row | Variant | effect of a mutation on the interaction
3 | V94D | disrupting interaction strength

Variants of: B4
Conditions: with marh7_human MARCHF7, Q9H992

Row | Variant | effect of a mutation on the interaction
4 | V94D | with no effect

Variants of: B5
Conditions: with TMEM106C

Row | Variant | effect of a mutation on the interaction
5 | G144W | disrupting interaction strength

Variants of: B6
Conditions: with VIP

Row | Variant | effect of a mutation on the interaction
6 | V94D | disrupting interaction strength

Variants of: B7
Conditions: with ubp25_human USP25, Q9UHP3
ubp25_human USP25, Q9UHP3, sequence (Q9UHP3 whole entry): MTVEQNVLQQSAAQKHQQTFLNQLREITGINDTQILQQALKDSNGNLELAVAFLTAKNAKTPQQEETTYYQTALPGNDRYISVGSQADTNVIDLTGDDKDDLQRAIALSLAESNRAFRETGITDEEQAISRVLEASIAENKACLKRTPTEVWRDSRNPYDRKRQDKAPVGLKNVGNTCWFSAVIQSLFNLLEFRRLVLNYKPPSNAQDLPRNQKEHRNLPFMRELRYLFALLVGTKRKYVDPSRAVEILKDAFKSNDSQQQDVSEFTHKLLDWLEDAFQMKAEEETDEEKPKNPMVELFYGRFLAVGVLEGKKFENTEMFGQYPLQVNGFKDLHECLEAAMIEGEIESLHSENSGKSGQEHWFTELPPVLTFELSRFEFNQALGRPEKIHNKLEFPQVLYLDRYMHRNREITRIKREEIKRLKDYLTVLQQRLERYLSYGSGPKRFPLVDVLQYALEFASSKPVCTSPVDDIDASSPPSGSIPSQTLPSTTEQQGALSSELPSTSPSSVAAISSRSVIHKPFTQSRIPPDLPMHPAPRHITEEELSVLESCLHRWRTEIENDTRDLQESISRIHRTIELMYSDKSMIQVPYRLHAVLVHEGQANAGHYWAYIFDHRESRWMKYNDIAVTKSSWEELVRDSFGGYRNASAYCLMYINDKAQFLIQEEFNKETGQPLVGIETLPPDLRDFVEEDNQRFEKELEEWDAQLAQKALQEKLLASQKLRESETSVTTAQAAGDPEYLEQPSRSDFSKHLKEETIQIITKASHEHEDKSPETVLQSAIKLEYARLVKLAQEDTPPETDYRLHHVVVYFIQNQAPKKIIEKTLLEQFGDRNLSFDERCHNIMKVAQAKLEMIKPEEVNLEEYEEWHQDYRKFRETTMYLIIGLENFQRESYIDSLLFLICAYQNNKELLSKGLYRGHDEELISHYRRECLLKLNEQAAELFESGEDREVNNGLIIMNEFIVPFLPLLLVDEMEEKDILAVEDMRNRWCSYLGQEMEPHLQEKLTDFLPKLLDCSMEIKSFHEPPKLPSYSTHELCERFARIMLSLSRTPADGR

Row | Variant | effect of a mutation on the interaction
7 | E85K | with no effect

Variants of: B7
Conditions: with ar13b_human ARL13B

Row | Variant | effect of a mutation on the interaction
8 | E85K | disrupting interaction strength

Variants of: B7
Conditions: with FGA

Row | Variant | effect of a mutation on the interaction
9 | E85K | with no effect

Variants of: B7
Conditions: with PCYT1B

Row | Variant | effect of a mutation on the interaction
10 | E85K | with no effect

Variants of: B7
Conditions: with zch12_human ZCCHC12, Q6PEW1
zch12_human ZCCHC12, Q6PEW1, sequence (Q6PEW1 whole entry): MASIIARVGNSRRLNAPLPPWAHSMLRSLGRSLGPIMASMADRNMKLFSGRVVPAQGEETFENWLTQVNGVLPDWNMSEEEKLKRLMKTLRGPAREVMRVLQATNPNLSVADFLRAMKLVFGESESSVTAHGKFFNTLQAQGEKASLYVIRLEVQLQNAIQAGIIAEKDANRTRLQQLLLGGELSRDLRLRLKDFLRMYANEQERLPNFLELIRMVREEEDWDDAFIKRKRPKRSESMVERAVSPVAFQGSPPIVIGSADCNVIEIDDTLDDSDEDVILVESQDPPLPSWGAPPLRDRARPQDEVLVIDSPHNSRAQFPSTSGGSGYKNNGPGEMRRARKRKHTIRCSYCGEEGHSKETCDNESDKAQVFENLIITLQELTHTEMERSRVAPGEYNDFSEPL

Row | Variant | effect of a mutation on the interaction
11 | E85K | with no effect
